Assay [1] deals with T1, Recombinant Human DLL4 (R&D Systems Cat#1506-D4/CF) (human, UniProt Q9NR61 27-524).
T1 construct: Bought recombinant protein; also called delta-like protein 4; rHuman DLL4
As to the kind of experiment: MSD multispot ECL, antigen spotted on plate, Fab in solution; blank spot of this row 237.

Assay [2] has as its target T2, rHuman ErbB2/Fc Chimera, CF (R&D Systems Cat#1129-ER) (human, UniProt P04626 23-652).
T2 construct: Bought recombinant protein; Fc part of the bought chimera not given
The description is as above.

Assay [3] has as its target T3, rHuman Notch-1/Fc Chimera, CF (R&D Systems Cat#3647-TK) (human, UniProt P46531 19-526).
T3 construct: Bought recombinant protein; Fc part of the bought chimera not given
Described as above.

Assay [4] concerns the target T4, rHuman P-Cadherin/Fc Chimera, CF (R&D Systems Cat#861-PC) (human, UniProt P22223 108-654).
T4 construct: Bought recombinant protein; Fc part of the bought chimera not given
The assay is described as above.

Assay [5] addresses T5, rHuman CD44/Fc Chimera, CF (R&D Systems Cat#3660-CD) (human, UniProt P16070 21-220).
T5 construct: Bought recombinant protein; Fc part of the bought chimera not given
The description is as above.

The target of assay [6] is T6, rHuman HGF R/c-MET/Fc Chimera, CF (R&D Systems Cat#358-MT/CF) (human, UniProt P08581 25-932).
T6 construct: Bought recombinant protein; also called HGF R/Fc; Fc part of the bought chimera not given
T6 sequence (P08581 25-932, change not shown): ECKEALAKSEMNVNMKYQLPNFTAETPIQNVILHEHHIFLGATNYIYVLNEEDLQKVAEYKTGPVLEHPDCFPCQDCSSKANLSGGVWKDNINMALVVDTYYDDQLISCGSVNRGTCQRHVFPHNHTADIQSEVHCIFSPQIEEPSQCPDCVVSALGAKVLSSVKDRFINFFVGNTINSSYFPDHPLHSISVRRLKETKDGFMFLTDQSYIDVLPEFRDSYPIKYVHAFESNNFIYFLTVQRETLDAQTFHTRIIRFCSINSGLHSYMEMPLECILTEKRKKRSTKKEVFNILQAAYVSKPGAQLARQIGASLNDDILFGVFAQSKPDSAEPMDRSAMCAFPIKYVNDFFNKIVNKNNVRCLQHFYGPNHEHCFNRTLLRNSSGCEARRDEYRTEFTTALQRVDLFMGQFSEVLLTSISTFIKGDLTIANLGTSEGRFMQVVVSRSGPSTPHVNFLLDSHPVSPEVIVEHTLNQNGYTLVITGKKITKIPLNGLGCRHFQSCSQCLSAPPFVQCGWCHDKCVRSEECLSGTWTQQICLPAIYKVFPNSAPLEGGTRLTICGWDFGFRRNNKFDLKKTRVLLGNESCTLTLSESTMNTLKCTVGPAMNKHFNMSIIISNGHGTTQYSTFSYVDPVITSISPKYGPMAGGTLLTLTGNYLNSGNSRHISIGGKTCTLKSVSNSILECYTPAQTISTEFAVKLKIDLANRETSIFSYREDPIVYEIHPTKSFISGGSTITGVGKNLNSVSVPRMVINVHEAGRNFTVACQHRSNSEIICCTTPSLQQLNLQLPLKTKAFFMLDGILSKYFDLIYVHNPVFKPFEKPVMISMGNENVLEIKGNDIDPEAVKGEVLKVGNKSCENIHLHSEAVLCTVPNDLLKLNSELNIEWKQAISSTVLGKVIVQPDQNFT
The description is as above.

Assay [7] concerns the target T7, rHuman EGF R/Fc Chimera, CF (R&D Systems Cat#344-ER) (human, UniProt P00533 25-645).
T7 construct: Bought recombinant protein; Fc part of the bought chimera not given
Described as above.

In assay [8] the target is T8, rHuman IGF-1 sR (insulin-like growth factor-1 soluble receptor), CF (R&D Systems Cat#391-GR) (human, UniProt P08069 31-932).
T8 construct: Bought recombinant soluble receptor; The column head prints only 'IGF-1'
The assay is described as above.

In assay [9] the target is T9, rHuman Erythropoietin R/Fc Chimera, CF (R&D Systems Cat#963-ER) (human, UniProt P19235 25-250).
T9 construct: Bought recombinant protein; also called EPO R; Epo R/Fc; Fc part of the bought chimera not given
T9 sequence (looked up): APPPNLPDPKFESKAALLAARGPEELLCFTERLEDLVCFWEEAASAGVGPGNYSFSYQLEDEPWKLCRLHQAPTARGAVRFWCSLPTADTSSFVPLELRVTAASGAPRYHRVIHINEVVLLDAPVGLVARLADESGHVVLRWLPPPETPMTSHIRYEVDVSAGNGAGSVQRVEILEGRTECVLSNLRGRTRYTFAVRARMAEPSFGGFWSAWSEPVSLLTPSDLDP
Described as above.

Assay [10] has as its target T1, Recombinant Human DLL4 (R&D Systems …). The experiment in a line: MSD multispot ECL, antigen spotted on plate, Fab in solution; blank spot of this row 440.
For assay [11], the target named is T2, rHuman ErbB2/Fc Chimera, CF (R&D …). Described as above.
In assay [12] the target is T3, rHuman Notch-1/Fc Chimera, CF (R&D …). Described as above.
The target in assay [13] is T4, rHuman P-Cadherin/Fc Chimera, CF (R&D …). Described as above.
The target in assay [14] is T5, rHuman CD44/Fc Chimera, CF (R&D Systems …). Described as above.
Assay [15] deals with T6, rHuman HGF R/c-MET/Fc Chimera, CF (R&D …). The assay is described as above.
Assay [16] concerns the target T7, rHuman EGF R/Fc Chimera, CF (R&D …). Described as above.
For assay [17], the target named is T8, rHuman IGF-1 sR (insulin-like growth …). Described as above.
In assay [18] the target is T9, rHuman Erythropoietin R/Fc Chimera, CF …. The assay is described as above.
The target of assay [19] is T1, Recombinant Human DLL4 (R&D Systems …). The experiment in a line: MSD multispot ECL, antigen spotted on plate, Fab in solution; blank spot of this row 258.
The target in assay [20] is T2, rHuman ErbB2/Fc Chimera, CF (R&D …). The assay is described as above.
For assay [21], the target named is T3, rHuman Notch-1/Fc Chimera, CF (R&D …). The assay is described as above.
The target in assay [22] is T4, rHuman P-Cadherin/Fc Chimera, CF (R&D …). The assay is described as above.
Assay [23] concerns the target T5, rHuman CD44/Fc Chimera, CF (R&D Systems …). The assay is described as above.
For assay [24], the target named is T6, rHuman HGF R/c-MET/Fc Chimera, CF (R&D …). The description is as above.
In assay [25] the target is T7, rHuman EGF R/Fc Chimera, CF (R&D …). The description is as above.
Assay [26] deals with T8, rHuman IGF-1 sR (insulin-like growth …). The assay is described as above.
Assay [27] concerns the target T9, rHuman Erythropoietin R/Fc Chimera, CF …. Described as above.
Assay [28] deals with T1, Recombinant Human DLL4 (R&D Systems …). The experiment in a line: MSD multispot ECL, antigen spotted on plate, Fab in solution; blank spot of this row 298.
For assay [29], the target named is T2, rHuman ErbB2/Fc Chimera, CF (R&D …). The assay is described as above.
Assay [30] deals with T3, rHuman Notch-1/Fc Chimera, CF (R&D …). The assay is described as above.
Assay [31] has as its target T4, rHuman P-Cadherin/Fc Chimera, CF (R&D …). Described as above.
Assay [32] concerns the target T5, rHuman CD44/Fc Chimera, CF (R&D Systems …). The assay is described as above.
Assay [33] concerns the target T6, rHuman HGF R/c-MET/Fc Chimera, CF (R&D …). Described as above.
Assay [34] addresses T7, rHuman EGF R/Fc Chimera, CF (R&D …). The assay is described as above.
Assay [35] addresses T8, rHuman IGF-1 sR (insulin-like growth …). The assay is described as above.
Assay [36] addresses T9, rHuman Erythropoietin R/Fc Chimera, CF …. The assay is described as above.

Where a chain is given by its changes, count along the chain named. Numbers in names are those of the source.

Our source for the ECL signal values is US20120316071A1 (published 2012).

B1: Fab VH1-46_IGHD6-6*01_IGHJ1*01 S102A/S103P/S104F/H111F (H:APFF) & L6_IGKJ1*01 S76E (Fab, V domains shown)
VH: QVQLVQSGAEVKKPGASVKVSCKASGYTFTSYYMHWVRQAPGQGLEWMGIINPSGGSTSYAQKFQGRVTMTRDTSTSTVYMELSSLRSEDTAVYYCAREEYAPFSAEYFQFWGQGTLVTVSS
VL: EIVLTQSPATLSLSPGERATLSCRASQSVSSYLAWYQQKPGQAPRLLIYDASNRATGIPARFSGSGSGTDFTLTIESLEPEDFAVYYCQQRSNWPPWTFGQGTKVEIKR
notes: Fab expressed in E. coli from plasmid A (heavy chain CH1, His6 and Flag tags) and plasmid C (kappa CL)
Turning to B1, the ECL signal in assay [1] turned out to be 51600; in assay [2] it was 277; in assay [3], 313; in assay [4], 338; in assay [5], 439; in assay [6], 228. The ECL signal was found to be 266 in [7], 336 in assay [8] and 440 in assay [9].

B2: Fab VH1-46_IGHD6-6*01_IGHJ1*01 S102A/S103P/S104F/H111F (H:APFF) & L6_IGKJ1*01 S76N (Fab, V domains shown)
VH: B1 VH
VL: B1 VL with E76N
notes: as for B1
In the case of B2, the ECL signal in assay [10] is 52000; in assay [11], 436; in assay [12], 298; in assay [13], 329; in assay [14], 369; in assay [15] it was 429. For the same molecule, the ECL signal in assay [16] is 385; in assay [17], 378; in [18] it was 384.

B3: Fab VH1-46_IGHD6-6*01_IGHJ1*01 S102A/S103P/S104F/H111F (H:APFF) & L6_IGKJ1*01 S76Q (Fab, V domains shown)
VH: B1 VH
VL: B1 VL with E76Q
notes: as for B1
Take B3: the ECL signal is 48300 in assay [19]; 264 in [20]; 255 in [21]; 364 in assay [22]; 287 in assay [23]; 386 in [24]. Besides, the ECL signal was 324 in assay [25], 188 in assay [26] and 430 in [27].

B4: Fab VH1-46_IGHD6-6*01_IGHJ1*01 S102A/S103P/S104F/H111F (H:APFF) & L6_IGKJ1*01 S76P (Fab, V domains shown)
VH: B1 VH
VL: B1 VL with E76P
notes: as for B1
In the case of B4, the ECL signal amounted to 29800 in [28]; 260 in assay [29]; 402 in [30]; 271 in [31]; 313 in assay [32]; 394 in assay [33]. The ECL signal in assay [34] worked out at 331; in [35] it was 347; in assay [36], 371.
